This is an account of results in patent US20200297842A1 (published 2020).

Assay [1] has as its target T1, Fc tagged human SIRPγ (ACRO # SIG-H5253) (human, UniProt Q9P1W8 29-360).
T1 construct: Bought protein; it includes the transmembrane and cytoplasmic part, which a soluble Fc fusion would not carry; also called Fc tagged human SIRP gamma; recombinant human SIRP gamma; not shown: Fc tag
Nature of the assay: ELISA, plate-coated Fc tagged human SIRPγ. How it is done:
(§1) Fc tagged human SIRPγ (ACRO # SIG-H5253) is adsorbed to high-binding microtiter plates at a concentration of 1 μg/ml in phosphate buffered saline (PBS) overnight at 4° C. The coating solution is removed, the wells are washed and then blocked with 75% casein in PBS containing 0.5% Tween 20 (PBST) for 60 minutes at room temperature while shaking. Blocking solution is removed, the wells are washed and incubated for 60 minutes at room temperature while shaking with anti-SIRP mAbs diluted in PBST at a starting concentration of 30 μg/ml and reducing the concentration in 3-fold serial dilutions. Wells are washed three times with PBST and incubated for 60 minutes at room temperature while shaking with an HRP labeled donkey anti-mouse or anti-human secondary antibody (Jackson ImmonResearch Laboratories) diluted 1:10,000 in PBST. The wells are washed and then incubated with peroxidase substrate and the absorbance at 450 nm determined. The apparent affinities were calculated using a non-linear fit model (GraphPad Prism).
Background: ELISA stands for enzyme-linked immunosorbent assay.

Assay [2] has as its target T2, human SIRPγ expressed on cells (human, UniProt Q9P1W8 29-387).
T2 construct: Endogenous SIRPγ on Jurkat T-ALL cells and on human CD3+ T cells; also called SIRPγ expressing Jurkat cells; Human T Cells Expressing SIRPγ
Nature of the assay: flow cytometry on Jurkat cells expressing SIRPγ, increasing mAb concentrations (FIG. 4A). How it is done:
FIG. 4A-FIG. 4B. Binding of SIRP mAbs to Jurkat T cells Expressing SIRPγ. Binding of SIRP1, SIRP2, SIRP3, SIRP4 and SIRP9 to Jurkat T-ALL cells was determined. Cells were incubated with increasing concentrations of antibody FIG. 4A; or 10 μg/ml of the anti-SIRP antibodies for 1 hr; FIG. 4B. Cells were washed and then incubated with Alexaflour 647-labelled secondary antibody for 1 hr. Cells were washed and antibody binding measured using flow cytometry.
Jurkat cells were incubated for 60 min at 37° C., 5% CO₂ with increasing concentrations of the anti-SIRP mAbs diluted in phosphate buffered saline (PBS), pH 7.2. Cells were then washed with PBS and incubated for an additional hour with Alexa Fluor-647 labeled donkey anti-mouse antibody (Jackson ImmunoResearch Laboratories) in PBS. Cells were washed and binding analyzed using a C6 Accuri Flow Cytometer (Becton Dickinson). Alternatively, the cells were incubated for 1 h at 37° C. with the saturating concentration of 10 μg/ml of SIRP mAbs in binding buffer containing 1 mM EDTA (Sigma Aldrich), 1% FBS (Biowest) in PBS (Corning). The cells were then washed and stained for 45 min under the same conditions with donkey anti-mouse IgG fluorescein isothiocyanate (FITC)-linked secondary antibody (Jackson ImmunoResearch Laboratories). The cells were then washed and analyzed by flow cytometry (Attune, Life Technologies).
In general terms: Flow cytometry measures light scatter and fluorescence of single cells or particles in a stream.

Assay [3] has as its target T3, Fc tagged human SIRPα (ACRO # SIG-H5251, genotype variant 1) (human, UniProt P78324 31-370, limits assumed).
T3 construct: Bought protein; also called Fc tagged human SIRP alpha; recombinant human SIRPα; not shown: Fc tag
Put plainly: ELISA, plate-coated Fc tagged human SIRPα; apparent Kd. How it is done: The binding of anti-SIRP monoclonal antibodies (mAbs) of the present disclosure to SIRP alpha (SIRPα) was determined by solid phase ELISA using an Fc tagged human SIRP alpha. Binding by soluble anti-SIRP antibodies was measured in vitro.
Fc tagged human SIRPα (ACRO # SIG-H5251, genotype variant 1) is adsorbed to high-binding microtiter plates at a concentration of 1 μg/ml diluted in phosphate buffered saline (PBS) overnight at 4° C. The coating solution is removed, the wells are washed and then blocked with 75% casein in PBS containing 0.5% Tween 20 (PBST) for 60 minutes at room temperature while shaking. Blocking solution is removed, the wells are washed and incubated for 60 minutes at room temperature while shaking with either murine or human anti-SIRP mAbs diluted in PBST at a starting concentration of 30 μg/ml and reducing the concentration in 3-fold serial dilutions. Wells are washed three times with PBST and incubated for 60 minutes at room temperature while shaking with an HRP-labeled donkey anti-mouse or anti-human secondary antibody (Jackson ImmunoResearch Laboratories) diluted 1:10,000 in PBST. The wells are washed and then incubated with peroxidase substrate and the absorbance at 450 nm measured. The apparent affinities were calculated using a non-linear fit model (GraphPad Prism).

For assay [4], the target named is T2, human SIRPγ expressed on cells. Nature of the assay: flow cytometry on naive human CD3 T cells expressing SIRPγ (second column). How it is done: (§2) Human CD3 T cells, isolated from peripheral blood mononuclear cells (Astarte Biologics) were incubated in 96-well V-bottom plates at 2.5 \ 10⁵ cells/well for 1 h at 37° C., 5% CO₂ with serial dilutions of SIRP mAbs in binding buffer containing 1 mM EDTA (Sigma Aldrich), 1% FBS (Biowest) in PBS (Corning). The cells were then washed and stained for 45 min under the same conditions with donkey anti-mouse IgG fluorescein isothiocyanate (FITC)-linked secondary antibody (Jackson ImmunoResearch Laboratories). The cells were subsequently stained with anti-CD3 conjugated to 3-carboxy-6,8-difluoro-7-hydroxycoumarin (Pacific Blue) fluorophore (BioLegend) for 30 min on ice, washed and analyzed by flow cytometry (Attune, Life Technologies). Binding was assessed as the median FITC fluorescence intensity of CD3⁺ cells, subtracted from CD3⁺ cells stained with the secondary antibody only. All SIRP antibodies were generated in-house except for LSB2.20 (BioLegend). For activated T cells, prior to the binding assay CD3 T cells were activated for 72 h in a 96-well flat-bottom plate coated with 10 μg/ml anti-CD3 (clone UCHT1; BioLegend), at 1×10⁵ cells/well in the presence of 0.5 μg/ml anti-CD28 (clone CD28.2; BioLegend).

In assay [5] the target is T4, human SIRPα expressed on cells (human, UniProt P78324 31-504).
T4 construct: whole, on cells; Endogenous SIRPα of THP-1 cells and of donor-derived macrophages and dendritic cells; also called SIRPα expressing THP-1 cells; cell-expressed SIRPα on dendritic cells and/or macrophages
Nature of the assay: flow cytometry on human monocyte-derived macrophages; apparent Kd. How it is done:
Human CD14⁺ monocytes, isolated from peripheral blood mononuclear cells (Astarte Biologics) were differentiated in vitro for seven days into macrophages or dendritic cells. For macrophage differentiation, monocytes were incubated in AIM-V media (Life Technologies) supplemented with 50 ng/ml M-CSF (Biolegend) for seven days. For dendritic cell differentiation, monocytes were incubated in AIM-V media (Life Technologies) in the presence of 10% human AB serum (Valley Biomedical), 200 ng/ml GM-CSF (Biolegend) and 50 ng/ml IL-4 (Biolegend). The cells were incubated for 1 h at 37° C., 5% CO₂ with serial dilutions of SIRP mAbs in binding buffer containing 1 mM EDTA (Sigma Aldrich) and 1% FBS (Biowest) in PBS (Corning). The cells were then washed and stained for 45 min under the same conditions with donkey anti-mouse IgG fluorescein isothiocyanate (FITC)-linked secondary antibody (Jackson ImmunoResearch Laboratories). The cells were subsequently stained with anti-CD14 or anti-CD11c conjugated to Alexa Fluor 647 fluorophore (Life Technologies and Biolegend, respectively) for 30 min on ice, washed and analyzed by flow cytometry (Attune, Life Technologies). Binding was assessed as the median FITC fluorescence intensity of CD14⁺ or CD11c⁺ cells, subtracted from cells stained with the secondary antibody only.

The target in assay [6] is T2, human SIRPγ expressed on cells. Put plainly: flow cytometry on activated human CD3 T cells expressing SIRPγ. How it is done:
as §2

Assay [7] concerns the target T1, Fc tagged human SIRPγ (ACRO # SIG-H5253). Nature of the assay: ELISA, plate-coated Fc tagged human SIRPγ; apparent Kd. How it is done:
The binding of anti-SIRP antibodies of the present disclosure to SIRP gamma (SIRPγ) was determined by ELISA using an Fc tagged human SIRPγ. Binding by soluble anti-SIRP antibodies was measured in vitro.
as §1

T2 sequence (Q9P1W8 29-387): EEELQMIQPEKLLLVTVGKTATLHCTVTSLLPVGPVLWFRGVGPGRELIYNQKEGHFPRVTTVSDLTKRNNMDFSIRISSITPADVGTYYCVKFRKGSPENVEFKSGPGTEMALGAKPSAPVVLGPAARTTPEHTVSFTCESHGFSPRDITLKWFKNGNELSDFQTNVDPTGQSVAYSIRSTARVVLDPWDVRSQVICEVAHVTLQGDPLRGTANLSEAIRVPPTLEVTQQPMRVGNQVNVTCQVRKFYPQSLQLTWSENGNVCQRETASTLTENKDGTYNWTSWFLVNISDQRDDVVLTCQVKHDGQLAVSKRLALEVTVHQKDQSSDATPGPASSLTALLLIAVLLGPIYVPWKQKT
T1 sequence (Q9P1W8 29-360 limits assumed): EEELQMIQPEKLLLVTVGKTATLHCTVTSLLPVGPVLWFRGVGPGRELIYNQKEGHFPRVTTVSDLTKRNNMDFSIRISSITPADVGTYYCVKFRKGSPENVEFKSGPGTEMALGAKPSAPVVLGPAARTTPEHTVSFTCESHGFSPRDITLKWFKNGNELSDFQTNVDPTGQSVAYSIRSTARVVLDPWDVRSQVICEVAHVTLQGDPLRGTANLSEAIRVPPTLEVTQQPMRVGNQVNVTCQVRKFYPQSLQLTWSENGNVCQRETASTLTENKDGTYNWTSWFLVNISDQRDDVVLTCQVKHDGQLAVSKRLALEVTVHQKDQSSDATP
T4 sequence (P78324 31-504): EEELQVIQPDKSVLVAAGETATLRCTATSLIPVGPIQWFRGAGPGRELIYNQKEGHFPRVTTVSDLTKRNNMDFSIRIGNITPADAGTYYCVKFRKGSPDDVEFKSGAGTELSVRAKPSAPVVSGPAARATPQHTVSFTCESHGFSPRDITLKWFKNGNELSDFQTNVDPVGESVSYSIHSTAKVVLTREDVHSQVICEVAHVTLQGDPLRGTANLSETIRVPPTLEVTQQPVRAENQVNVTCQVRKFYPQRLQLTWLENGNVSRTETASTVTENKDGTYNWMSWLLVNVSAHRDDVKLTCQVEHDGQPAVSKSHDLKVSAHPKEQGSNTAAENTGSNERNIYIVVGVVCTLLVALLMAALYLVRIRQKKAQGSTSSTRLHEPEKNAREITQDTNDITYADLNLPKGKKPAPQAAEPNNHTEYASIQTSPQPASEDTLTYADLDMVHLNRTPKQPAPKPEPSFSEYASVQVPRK
T3 sequence (P78324 31-370 limits assumed, change not shown, form in doubt): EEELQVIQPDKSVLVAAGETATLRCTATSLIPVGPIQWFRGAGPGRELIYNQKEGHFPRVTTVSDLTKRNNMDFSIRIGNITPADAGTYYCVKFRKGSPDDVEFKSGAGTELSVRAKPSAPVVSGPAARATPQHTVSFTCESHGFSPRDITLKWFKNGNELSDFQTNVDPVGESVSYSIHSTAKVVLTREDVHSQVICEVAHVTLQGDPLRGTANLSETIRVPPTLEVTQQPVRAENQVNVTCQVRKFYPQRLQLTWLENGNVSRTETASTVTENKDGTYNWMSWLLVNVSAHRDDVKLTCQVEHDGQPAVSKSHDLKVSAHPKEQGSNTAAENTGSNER

B1: SIRP1 (antibody, mouse IgG1, kappa, V domains shown)
VH: QVQLQQSGAELMKPGASVKISCKATGYSFTKYWIEWVKQRPGHGLEWIGEILPGSVITNYNEKFKGKATFTADTSSNTVYMQLSSLTSEDSAVYYCTKWGLYDSDDGVDYWGQGTTLTVSS
VL: ENVLTQSPAIMSASLGEKVTMSCRASSGVNYMYWYQQKSDASPKLLIYYTSILAPGVPARFSGSGSGNSYSLTISSMEGEDAATYYCQQFTSSPYTFGGGTKLEIKR
notes: Hybridoma-derived mouse mAb
Regarding B1, the binding result in assay [1] is “no binding (tested: 30 µg/ml)”; in assay [2], “no binding”.

B2: SIRP9 (antibody, V domains shown)
VH: EVQLQESGAELVRPGASVKLSCKALGYTFTDYEIHWVKETPVYGLEWIGDIHPGSGGTANNQKFKGKATLTADKSSNTAYMELSSLTSEDSAVYYCTRAVSGYYAMDYWGQGTSVTVSS
VL: DIQMTQSSSSFSGSLGDRLTINCKASEDIYDRVAWYQQKPGNAPRLLISGTASLETGVLSRFSGSGSGKDYTLSINGLQAEDVATYYCQQYWTTPWTFGGGTKLEIK
notes: detected with anti-mouse secondary antibody in the cell assays
Regarding B2, the Kd in assay [3] stood at 0.583 nM; in assay [4] it was 1.41 nM; in assay [5], 0.0937 nM; in assay [6], 0.263 nM; in assay [7], 0.51 nM.
